Laboratory results taken from PMC10778600, “Conserved Residues Lys64 and Glu78 at the Subunit Surface of Tau Glutathione Transferase in Rice Affect Structure and Enzymatic Properties” (International Journal of Molecular Sciences, 2023).
Blank lines part the entries; values can stand above or below the molecule they belong to.

Legend:
[1] = target: OsGSTU17 mutant E78A (Oryza sativa); test: native gel or EMSA; native PAGE of the purified proteins, gel pre-run 30-60 min, 100-200 V, 0-4 °C; BSA and ovalbumin as markers; molecular weight compared with SDS-PAGE of the denatured proteins
[2] = target: wild-type OsGSTU17 (rice tau class glutathione transferase) (Oryza sativa); test: as above
[3] = target: OsGSTU17 mutant K64A (Oryza sativa); test: as above
[4] = substrate: O=[N+]([O-])c1ccc(Cl)c2nonc12; test: steady-state kinetics, non-linear regression; format: biochemical, Oryza sativa; settings: GSH fixed at 1.0 mM; NBD-Cl 0.2 to 1.0 mM
Text: steady-state kinetics, non-linear regression on OsGSTU17

stoichiometry N [1]: 2
Molecule: OsGSTU17 mutant E78A (enzyme)

stoichiometry N [2]: 2
Molecule: wild-type OsGSTU17 (rice tau class glutathione transferase) (enzyme)

stoichiometry N [3]: 2
Molecule: OsGSTU17 mutant K64A (enzyme)

B1: OsGSTU17 (Oryza sativa Japonica Group; K64A) (protein)
chain: MAADKGVKVFGMWASPMAIRVEWALRLKGVDYEYVDEDLANKSEALLRHNPVTKKVPVLVHDGAPLAESTVIVEYIDEAWKHGYPIMPSDPFDRAQARFWARFAEEKCNAALYPIFMTTGEEQRKLVHEAQQCLKTLETALEGKKFFGGDAFGYLDIVTGWFAYWLPVIEEACGVEVVTDEALPLMKAWFDRVLAVDAVKAVLPPRDKLVALNKARREQILSA
Km [4]: 507 ± 25 µM | Vmax [4]: 0.287 µM/min/mg | kcat [4]: 0.217 s⁻¹ | kcat/Km [4]: 428 M⁻¹ s⁻¹
